Where “and” joins values, the source holds several entries; their conditions need not be identical. Equal entries are not always repeated. One block for each binder: values may come before it.
Tests used:
[1] = biological target: T1, ヒトMMP9 (human, UniProt P14780 20-707, limits assumed); experiment: direct binding assay and SPR
T1 construct: also called human MMP9; ゼラチナーゼ−B

[2] = biological target: T1, ヒトMMP9; experiment: SPR
[3] = biological target: T1, ヒトMMP9; experiment: cell-based or functional assay
[4] = biological target: T2, ラットMMP9 (rat, UniProt P50282 20-708, limits assumed); experiment: ELISA
T2 construct: also called rat MMP9; 組換えラットMMP9
T2 sequence (P50282 20-708 limits assumed): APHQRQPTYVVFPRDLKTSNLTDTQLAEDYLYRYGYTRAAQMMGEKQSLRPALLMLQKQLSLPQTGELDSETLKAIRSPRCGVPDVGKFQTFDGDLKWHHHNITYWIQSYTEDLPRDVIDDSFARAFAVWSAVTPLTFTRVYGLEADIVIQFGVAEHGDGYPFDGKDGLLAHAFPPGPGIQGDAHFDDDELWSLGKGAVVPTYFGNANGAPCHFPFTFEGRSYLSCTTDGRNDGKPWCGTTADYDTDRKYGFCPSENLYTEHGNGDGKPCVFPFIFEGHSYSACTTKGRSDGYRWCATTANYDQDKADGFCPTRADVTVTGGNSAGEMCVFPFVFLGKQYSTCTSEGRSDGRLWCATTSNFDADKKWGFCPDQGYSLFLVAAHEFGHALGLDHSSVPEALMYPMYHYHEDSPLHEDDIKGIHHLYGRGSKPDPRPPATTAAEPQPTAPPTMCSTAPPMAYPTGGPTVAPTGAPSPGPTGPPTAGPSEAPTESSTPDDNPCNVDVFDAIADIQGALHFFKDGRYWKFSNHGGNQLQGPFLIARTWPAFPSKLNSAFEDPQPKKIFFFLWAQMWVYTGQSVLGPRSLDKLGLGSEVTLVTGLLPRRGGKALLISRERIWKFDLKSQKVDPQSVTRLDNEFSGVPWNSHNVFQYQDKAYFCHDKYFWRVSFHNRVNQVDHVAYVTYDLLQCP

[5] = biological target: T3, カニクイザルMMP9 (cynomolgus monkey, UniProt A0A2K5UU71 20-706); experiment: ELISA
T3 construct: also called cynomolgus MMP9; 組換えカニクイザルMMP9
T3 sequence (A0A2K5UU71 entry or part of it): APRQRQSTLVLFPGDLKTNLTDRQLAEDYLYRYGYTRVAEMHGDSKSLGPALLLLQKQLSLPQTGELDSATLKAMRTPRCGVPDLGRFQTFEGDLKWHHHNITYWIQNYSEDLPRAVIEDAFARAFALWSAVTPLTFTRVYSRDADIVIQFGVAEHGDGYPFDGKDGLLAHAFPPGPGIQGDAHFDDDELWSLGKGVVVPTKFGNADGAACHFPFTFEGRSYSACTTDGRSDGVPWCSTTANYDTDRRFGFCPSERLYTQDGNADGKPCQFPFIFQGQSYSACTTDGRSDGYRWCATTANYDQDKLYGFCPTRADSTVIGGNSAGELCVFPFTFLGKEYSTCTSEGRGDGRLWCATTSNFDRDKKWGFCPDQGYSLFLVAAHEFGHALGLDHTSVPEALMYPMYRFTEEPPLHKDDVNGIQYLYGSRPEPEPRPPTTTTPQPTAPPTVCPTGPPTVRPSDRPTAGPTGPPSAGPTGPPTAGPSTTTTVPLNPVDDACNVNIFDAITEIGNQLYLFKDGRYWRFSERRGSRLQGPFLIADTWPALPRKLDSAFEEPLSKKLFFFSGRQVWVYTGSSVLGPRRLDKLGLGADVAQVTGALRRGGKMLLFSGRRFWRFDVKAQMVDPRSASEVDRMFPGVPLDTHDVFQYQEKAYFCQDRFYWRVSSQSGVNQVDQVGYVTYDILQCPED

[6] = biological target: T1, ヒトMMP9; experiment: ELISA
[7] = biological target: T4, マウスMMP9 (mouse, UniProt P41245 20-730, limits assumed); experiment: cell-based or functional assay
T4 sequence (P41245 20-730 limits assumed): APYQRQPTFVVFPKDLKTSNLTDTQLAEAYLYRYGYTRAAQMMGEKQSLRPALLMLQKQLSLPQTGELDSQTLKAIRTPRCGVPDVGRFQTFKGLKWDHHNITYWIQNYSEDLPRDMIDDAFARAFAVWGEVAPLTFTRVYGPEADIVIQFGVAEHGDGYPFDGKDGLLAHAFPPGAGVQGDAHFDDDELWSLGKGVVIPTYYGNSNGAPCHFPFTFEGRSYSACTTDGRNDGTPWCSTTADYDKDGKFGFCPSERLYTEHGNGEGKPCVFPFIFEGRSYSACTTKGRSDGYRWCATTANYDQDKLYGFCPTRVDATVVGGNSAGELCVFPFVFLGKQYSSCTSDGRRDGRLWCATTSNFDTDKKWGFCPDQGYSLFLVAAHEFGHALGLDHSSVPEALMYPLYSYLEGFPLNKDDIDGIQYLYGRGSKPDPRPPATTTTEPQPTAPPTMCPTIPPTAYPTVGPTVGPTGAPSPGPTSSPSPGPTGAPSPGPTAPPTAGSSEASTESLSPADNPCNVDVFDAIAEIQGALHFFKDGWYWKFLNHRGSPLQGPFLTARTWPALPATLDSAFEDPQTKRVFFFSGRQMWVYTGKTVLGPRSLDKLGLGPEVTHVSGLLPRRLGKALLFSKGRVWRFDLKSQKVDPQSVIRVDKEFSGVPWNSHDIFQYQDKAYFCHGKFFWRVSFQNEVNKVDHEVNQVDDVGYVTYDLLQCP

[8] = biological target: T4, マウスMMP9; experiment: ELISA
[9] = biological target: T4, マウスMMP9; experiment: binding test (Table 2, not shown)

T1 sequence (P14780 20-707 Q279R/R574P limits assumed): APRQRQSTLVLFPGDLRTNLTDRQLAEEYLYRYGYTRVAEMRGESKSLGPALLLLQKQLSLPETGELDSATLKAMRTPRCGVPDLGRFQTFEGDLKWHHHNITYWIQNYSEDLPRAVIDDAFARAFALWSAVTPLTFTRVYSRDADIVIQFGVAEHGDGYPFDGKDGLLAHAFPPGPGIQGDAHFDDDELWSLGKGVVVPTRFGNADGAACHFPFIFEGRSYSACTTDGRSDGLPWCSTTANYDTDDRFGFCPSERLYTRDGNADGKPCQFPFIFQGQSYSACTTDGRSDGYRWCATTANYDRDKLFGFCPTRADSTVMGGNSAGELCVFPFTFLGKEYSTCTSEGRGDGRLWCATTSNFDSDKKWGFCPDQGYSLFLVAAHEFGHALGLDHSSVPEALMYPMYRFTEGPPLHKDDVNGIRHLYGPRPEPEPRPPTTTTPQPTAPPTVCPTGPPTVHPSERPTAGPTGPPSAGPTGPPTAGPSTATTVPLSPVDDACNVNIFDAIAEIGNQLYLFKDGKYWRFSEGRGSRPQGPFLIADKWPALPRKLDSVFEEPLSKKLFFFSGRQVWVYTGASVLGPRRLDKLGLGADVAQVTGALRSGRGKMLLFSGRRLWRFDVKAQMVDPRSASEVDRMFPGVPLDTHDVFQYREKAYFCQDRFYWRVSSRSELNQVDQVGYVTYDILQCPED

Kd [1]: ~0.001 nM
Kd [2]: 0.0088 nM
IC50, MMP9-mediated cleavage of fluorogenic peptide substrate Mca-PLGL-Dpa-AR-NH2 [3]: 0.691 nM
Kd [4]: < 0.4 nM
Kd [5]: < 0.4 nM
Kd [6]: < 0.4 nM and 0.168 nM
B1: ヒト化変異体抗MMP9抗体AB0045(ヒト化、改変IgG4(S241P)) (antibody, V domains shown)
VH: QVQLQESGPGLVKPSETLSLTCTVSGFSLLSYGVHWVRQPPGKGLEWLGVIWTGGTTNYNSALMSRFTISKDDSKNTVYLKMNSLKTEDTAIYYCARYYYGMDYWGQGTLVTVSS
VL: DIQMTQSPSSLSASVGDRVTITCKASQDVRNTVAWYQQKPGKAPKLLIYSSSYRNTGVPDRFSGSGSGTDFTLTISSLQAEDVAVYYCQQHYITPYTFGGGTKVEIKR
notes: also called AB0045; AB0045抗体

IC50, MMP9-mediated cleavage of fluorogenic peptide substrate Mca-PLGL-Dpa-AR-NH2 [7]: 0.352 nM
Kd [8]: 0.218 nM
B2: マウス抗体AB0046 (antibody, V domains shown)
VH: QVQLQQPGSVLVRPGASVKLSCTASGYTFTSYWMNWVKQRPGQGLEWIGEIYPISGRTNYNEKFKVKATLTVDTSSSTAYMDLNSLTSEDSAVYYCARSRANWDDYWGQGTTLTVSS
VL: DIQMTQTTSSLSASLGDRVTISCSASQGISNYLNWYQQKPDGTFKLLIYYTSILHSGVPSRFSGSGSGTDYSLTISNLEPEDIATYYCQQYGWLPRTFGGGTKLEIKR
notes: Mouse IgG1/kappa anti-mouse MMP9 antibody; also called AB0046; AB0046抗体

Kd [2]: 0.0004 nM
IC50, MMP9-mediated cleavage of fluorogenic peptide substrate Mca-PLGL-Dpa-AR-NH2 [3]: 0.569 nM
Kd [4]: < 0.4 nM
Kd [5]: < 0.4 nM
binding result [9]: no binding
B3: マウスモノクローナル抗MMP9抗体(AB0041) (antibody, mouse IgG2b, V domains shown)
VH: QVQLKESGPGLVAPSQSLSITCTVSGFSLLSYGVHWVRQPPGKGLEWLGVIWTGGTTNYNSALMSRLSISKDDSKSQVFLKMNSLQTDDTAIYYCARYYYGMDYWGQGTSVTVSS
VL: DIVMTQSHKFMSTSVGDRVSITCKASQDVRNTVAWYQQKTGQSPKLLIYSSSYRNTGVPDRFTGSGSGTDFTFTISSVQAEDLAVYFCQQHYITPYTFGGGTKLEIK
notes: also called AB0041; AB0041抗体
